{
  "source": "patent US11311610B2",
  "about": "“Immune-modulating agents and uses therefor” (UNIVERSITY OF TECHNOLOGY SYDNEY, priority 2010, dated 2022)",
  "tested_on": "LPS-induced inflammatory response",
  "experiment": "Endotoxin (LPS)-induced inflammation in mice, co-injection",
  "assay_type": "in vivo, BALB/c mice",
  "description": "FIG. 9 is a graphical representation showing LPS neutralization by FhHDM-1. The ability of FhHDM-1 (Δ), FhHDM-1 p1 (●) or FhHDM-1 p3 (▪) to bind to LPS was investigated by (A) incubating a range of concentrations of proteins (0.02-2 μg/well) in an LPS-coated (100 ng/well) microtitre plate. Bound peptides were detected by ELISA using rabbit anti-FhHDM-1 as a primary antibody. (B) FhHDM-1 or derived peptides (0.1 μg) were incubated in the presence of LPS (0.05-5 μg/well) and bound peptides measured as described above. Binding of peptides to the LPS-immobilized plates was expressed as a percentage of that measured for 2 μg (for panel A) or 0.1 μg (for panel B) of FhHDM-1. Data are the means±SD from three separate experiments. (C) FhHDM-1 and FhHDM-1 p3 but not FhHDM-1 p1 reduced the interaction between LPS and LBP as effectively as LL-37. LPS-coated microtitre plates were incubated with 5 μg/well of LL-37, FhHDM-1 or derived peptides for 1 h prior to the addition of 10% human sera in PBS. Interaction of LBP with LPS was measured by ELISA using an anti-LBP primary antibody and expressed as a percentage of that detected for 10% sera in the absence of added peptides. Data are the mean±SD of three separate experiments. Statistical significance was calculated using the student t-test and represent a comparison to the binding of 10% sera to immobilized LPS. (D) Binding of FITC-conjugated LPS to RAW264.7 cells was inhibited by LL-37, FhHDM-1 and peptides. RAW264.7 cells (5×10^5 cells/mL) were incubated with 1 μg/mL of FITC-conjugated LPS in the presence of increasing concentrations (0.1-10 μg/mL) of FhHDM-1, FhHDM-1 p1 and FhHDM-1 p3 and LL-37 in RPMI 1640 containing 10% FBS for 20 min at 4° C. The binding of FITC-LPS was analyzed by flow cytometry. LPS binding was expressed as a percentage of the mean fluorescence obtained for the addition of FITC-LPS to cells in the absence of peptides. Data are the mean±SD of two independent experiments. (E) FhHDM-1 and FhHDM-1 p3 both suppress the inflammatory response induced by LPS in mice. BALB/c mice were intra-peritoneally injected with 1 μg of LPS alone or combined with 1 μg of FhHDM-1, FhHDM-1 p3 or LL-37. Two hours later, sera was collected and serum levels of TNF and (F) IL-10 measured by ELISA. (G) Peritoneal macrophages were isolated, cultured unstimulated in media overnight and then levels of TNF and (H) IL-10 in the culture measured by ELISA. Data are the mean±SD of six mice in each group. Statistical significance represents a comparison to the levels of cytokines secreted by mice given LPS only.\nHuman Defense peptides protect against harmful inflammatory responses by preventing activation of macrophages by classical TLR ligands such as LPS (Scott et al. 2002, J. Immunol. 169, 3883-3891). Here, the inventors employed a murine model to examine whether FhHDM-1 and derived peptides can suppress LPS-induced Th1 inflammation. BALB/c mice were injected intra-peritoneally with 1 μg of LPS alone or LPS combined with 1 μg of FhHDM-1, FhHDM-1 p3 or LL-37. Two hours later, sera was collected and serum levels of the pro-inflammatory mediators TNF and IL-10 were measured by ELISA. […] Because macrophages are the main source of pro-inflammatory mediators in this murine model of inflammation, peritoneal macrophages were isolated from treated mice (LPS±FhHDM-1, peptides or LL-37 as described above), cultured unstimulated in media overnight and then levels of TNF and IL-10 in the culture media were measured by ELISA.\nSix week-old female BALB/c mice were purchased from ARC (Perth, Australia) and maintained according to the guidelines of the University of Technology Sydney Animal Care and Ethics committee. For the analysis for endotoxin-induced inflammation, mice were intra-peritoneally injected with 1 μg of E. coli LPS (serotype 111:B4; Sigma) either with or without 1 μg FhHDM-1 or derived peptides. After 2 h mice were sacrificed by cervical dislocation. […]",
  "key": {"[1]": {"settings": "BALB/c mice, 1 μg LPS mixed with 1 μg i.p., 2 h"}, "[2]": {"settings": "macrophages from treated mice, cultured unstimulated overnight"}},
  "data": [
    {"molecule": "FhHDM-1: 90-residue polypeptide from F. hepatica, Helminth Defense Molecule-1 (SEQ ID NO:24); recombinant form minus N-terminal signal peptide, expressed in E. coli (protein, listed as Fasciola hepatica) MRFIVLLCLAEVLLAAYVEARPSEESREKLRESGRKMVKALRDAVTKAYEKARDRAMAYLAKDNLGEKITEVITILLNRLTDRLEKYAGN", "values": [
      {"measurement": "serum levels of IL-10", "setting": "[1]", "value": "significant reduction"},
      {"measurement": "serum levels of TNF", "setting": "[1]", "value": "significant reduction"},
      {"measurement": "LPS-induced secretion of IL-10 from peritoneal macrophages", "setting": "[2]", "value": "significantly inhibited"},
      {"measurement": "TNF secreted from peritoneal macrophages", "setting": "[2]", "value": "significantly reduced"}
    ]}
  ]
}
